± gives the uncertainty stated by the source.

A short description of this series: amyloid nucleation score (Sup35N fusion, yeast selection) (log enrichment); library NNK1; higher = more nucleation; inactive = no reads after selection. The method in brief: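 For the nucleation score, DiMSum gave the log enrichment of output over input reads, centred on the mode score of non-aggregating sequences. Psi-negative yeast expressing Sup35N fused to peptides of 20 random codons were induced with 100 μM copper sulfate for 24 hours and grown 7 days at 30°C on medium lacking adenine and uracil. Input and output plasmid inserts were Illumina-sequenced, and sequences with under 100 input reads were excluded.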

Substance LNSSIYDLSHTVAGCHPALT came in with an amyloid nucleation score of -0.293 ± 1.3.

Substance PTEKYAESLMERTYFRAEMK showed an amyloid nucleation score of 0.315 ± 0.34.

In turn, RYHRTGCLGILWLSLSHRLS showed an amyloid nucleation score of 0.418 ± 0.59.

Take GYRCSWNDPMVNTVFFV: the amyloid nucleation score is 0.98 ± 0.56.

On to CLVVYHSRKAW, for which the amyloid nucleation score came out at 2.64 ± 0.16.

SIGFLYCPLMSCASNFKWSK gave an amyloid nucleation score of 4.55 ± 0.068.

SCIKNSCGINYLVGQATFHN displayed an amyloid nucleation score of 6.499 ± 0.049.

The substance CHGCIGTNSEGLCTLYEDYT showed an amyloid nucleation score of -0.594 ± 0.26.

Take WHSMKMCF: the amyloid nucleation score was 0.115 ± 0.45.

For VEMGIIFR, the amyloid nucleation score is -0.339 ± 0.24.

For YTTHLCLGAVSLYYVSGYTR, the amyloid nucleation score is 2.44 ± 0.13.

The substance NNLVFHGSKHNIKVRRMEMG had an amyloid nucleation score of -1.14 ± 2.7.

Regarding PMNYGSSNA, the amyloid nucleation score was -0.224 ± 1.7.

Substance CCVNDFPTISPLSPLKRFDR registered an amyloid nucleation score of -0.302 ± 0.54.

As to AQLWRARREFSFMTPMPSVS, the amyloid nucleation score was -0.624 ± 1.5.

For LLLFFNYNLSVIWWVYGRKS, the amyloid nucleation score was 1.23 ± 0.47.

Regarding TEIIFYLVYGWLTFRILGYN, the amyloid nucleation score is -0.705 ± 0.43.

For AVYDLCD, the amyloid nucleation score came to 0.816 ± 0.74.

The substance QFKRKIICQDKSVAFKCNYR registered an amyloid nucleation score of -0.493 ± 0.22.

For VWRSVSRCSCVSSSIGGVTV, the amyloid nucleation score is -0.868 ± 0.39.

As for DKNML, the amyloid nucleation score was 1.44 ± 0.54.

In turn, VTWGSSPMQKFSMVQIKS returned an amyloid nucleation score of 0.564 ± 0.48.

With GFAFSNVCIVAYYRYFSSRR, the amyloid nucleation score amounted to 3.26 ± 0.15.

The substance AWAKFCCSD came in with an amyloid nucleation score of -0.012 ± 1.1.

MYKAEICLMSLENRPLMLPF displayed an amyloid nucleation score of 0.203 ± 0.44.

Regarding MKMRFVVSLMNSERSSGRNE, the amyloid nucleation score is 0.9 ± 0.5.

As for FINGFGEDLKHIREVEVYLY, the amyloid nucleation score worked out at 4.07 ± 0.084.

For RYTRSGLIDMFTNSSTDAHS, the amyloid nucleation score stood at 0.115 ± 0.43.

Turning to FGGSLMASFDCTRPSSMER, the amyloid nucleation score was -0.606 ± 1.6.

For the substance FHGDLA, the amyloid nucleation score is -0.57 ± 0.26.

Take FSDSKLILRRRNPW: the amyloid nucleation score is -1.56 ± 1.4.

Turning to NGVPWG, the amyloid nucleation score is -0.21 ± 0.95.

Consider EVGNCFLESPGMVYVVGRDR, for which the amyloid nucleation score stood at 0.51 ± 0.52.

Turning to DSEKGSVLYLVMRGMNCVSI, the amyloid nucleation score came to 4.69 ± 0.052.

Take GMTLMVAEFGLIRLVNTLAI: the amyloid nucleation score came to 0.785 ± 0.49.

RLWIVPLGLWCLRHRVCCRP showed an amyloid nucleation score of -0.246 ± 0.65.

As for GTTHRDS, the amyloid nucleation score is -0.263 ± 0.35.

Substance LRYAG yielded an amyloid nucleation score of -0.87 ± 0.53.

The substance GLTCMHPWWLSHAEKRLVEL yielded an amyloid nucleation score of 1.05 ± 0.49.

FYEIY had an amyloid nucleation score of 0.021 ± 0.93.

As to DCVSHAGQRGIMCRSGSLRF, the amyloid nucleation score is -0.138 ± 0.64.

Consider FELTVGIWQHWRT, for which the amyloid nucleation score was 0.45 ± 0.5.

Substance CKFIFRKIVVGFCFDQQ yielded an amyloid nucleation score of 3.67 ± 0.1.

As to GICELQRPTYVTLVEVFMVD, the amyloid nucleation score was -0.49 ± 0.41.

In the case of VVAAILHKLS, the amyloid nucleation score is -0.16 ± 0.41.

Regarding FFCLSIHVYSG, the amyloid nucleation score turned out to be 0.46 ± 0.97.

For SWNYLVTDAKRRDGGEERVR, the amyloid nucleation score is -0.851 ± 1.7.

For the substance LHSIDVDIDVEFLSTHRDGP, the amyloid nucleation score result was “inactive”.

KFNPLLITKFSAWECGLVVG returned an amyloid nucleation score of -1.55 ± 1.9.

Regarding GMHLVKQVQGYRVRAEYSLF, the amyloid nucleation score came out at 0.98 ± 0.92.

In turn, AHSCDGPCRPHVTAVKALVL displayed an amyloid nucleation score of 0.089 ± 0.48.

Take RKSFLTLVNFYYLFRC: the amyloid nucleation score was found to be 3.1 ± 0.12.

Take QSSSYERLKQTGKLSFYIDF: the amyloid nucleation score is -0.069 ± 0.61.

On to GKCMYRVCYSEA, for which the amyloid nucleation score was -0.056 ± 0.46.

Consider TYCNQWIGCMGYRKKHEPR, for which the amyloid nucleation score is -0.077 ± 0.41.

Consider REPVCICLIAAYGRAKPPTG, for which the amyloid nucleation score stood at 0.382 ± 0.84.

HFQKYKELVVSKHN gave an amyloid nucleation score of 0.743 ± 1.1.

With RNSDSNTVGNRSFWLLGIL, the amyloid nucleation score stood at 0.389 ± 0.3.

VALIRGRD yielded an amyloid nucleation score of 0.292 ± 0.32.

IWWFGSILFLRQSWYKIWSC came in with an amyloid nucleation score of -0.877 ± 0.39.

SRYSNDLSDIMGDDESRSAH registered an amyloid nucleation score of 0.136 ± 0.28.

FRVLNCVSYVFFQRHFRRCG showed an amyloid nucleation score of -0.974 ± 0.88.

Consider MRHGSKAWQLYRLFKYDFFW, for which the amyloid nucleation score was 0.534 ± 0.9.

Substance KEKWRMQICAPGKS showed an amyloid nucleation score of -1.24 ± 0.81.

TFSFTAYNPCFDSFSTVGLS: the amyloid nucleation score is -0.147 ± 0.45.

The substance GFARLLLRRVHRAIISHFRF showed an amyloid nucleation score of -0.617 ± 0.45.

Regarding YKVCRMCAKGCSDSFRPVRA, the amyloid nucleation score amounted to 0.555 ± 0.48.

On to RLSHRM, for which the amyloid nucleation score was -0.994 ± 0.54.

For NIRKPNLNTMTDRLDWSVQS, the amyloid nucleation score is -0.102 ± 0.47.

Take RCMLGLLNFIESIHGGR: the amyloid nucleation score turned out to be 4.89 ± 0.095.

Turning to NRCVAGRWPNSFVVLGHTFN, the amyloid nucleation score is -0.211 ± 0.71.

For the substance RSLLLALFAICYVCGGYEWV, the amyloid nucleation score came out at 1.24 ± 0.85.

Consider GLKRWSIGFRDGERQSCRVR, for which the amyloid nucleation score was -0.523 ± 0.35.

As for ICIYNSGIGLTGVRVWVQGL, the amyloid nucleation score entry is “inactive”.

As for ANDKHLVLGWAQVVTQMDGR, the amyloid nucleation score stood at 0.731 ± 0.86.

Regarding FTLLAFGCNSENGG, the amyloid nucleation score was -0.462 ± 0.6.

As for MPLAKSPLTLG, the amyloid nucleation score is 4.39 ± 0.062.

In turn, VVVRLRFRNSIPSILSQR returned an amyloid nucleation score of -0.304 ± 0.71.

NGKVYVELKEWDLRVVGSLR yielded an amyloid nucleation score of 4.44 ± 0.095.

SNSSMWAYRVC gave an amyloid nucleation score of 0.497 ± 0.74.

In turn, EGYAWGPYLKLTRSKLRMSF registered an amyloid nucleation score of -0.374 ± 0.81.

Substance LDLAFSFLHSTNIWTTFGLC came in with an amyloid nucleation score of -1.6 ± 1.4.

For TSSCFMESRLK, the amyloid nucleation score was found to be 0.179 ± 0.59.

LFRIIWGCS: the amyloid nucleation score result was “inactive”.

For KYTYGRHTQLVLDSIHSWLN, the amyloid nucleation score is 0.235 ± 0.75.

The substance AVCVEGQLANSGHRGTGNGN came in with an amyloid nucleation score of 0.257 ± 0.48.

ESMDSWDYVLNISAEMVYCR displayed an amyloid nucleation score of 0.366 ± 0.54.

As for IGLMRLC, the amyloid nucleation score is -0.608 ± 1.2.

Turning to KGKPYFAEMLHIMSFVWSSD, the amyloid nucleation score is 1.3 ± 0.6.

As for LDIINLGGRHFTRSPVLYRN, the amyloid nucleation score is -0.297 ± 0.49.

RIDYWVIPGAWNSTCWRYTT gave an amyloid nucleation score of 1.49 ± 0.45.

As to FRLRVSGVSCMR, the amyloid nucleation score was -0.912 ± 2.4.

As to TFSYILDWFEVSLTHRGALI, the amyloid nucleation score was 0.192 ± 0.41.

Take PNLMLAFVL: the amyloid nucleation score came out at 1.14 ± 0.41.

On to YVSLLYLLWLI, for which the amyloid nucleation score was -0.326 ± 0.32.

SNQSDLMLLMENMIDYMKSL: the amyloid nucleation score amounted to 1.32 ± 0.39.

Substance TTEFIGES showed an amyloid nucleation score of 1.25 ± 0.73.

Substance DSMKMIILVDVGRNHGLGHR had an amyloid nucleation score of 3.32 ± 0.16.

Regarding GIVFIIQYS, the amyloid nucleation score result was “inactive”.

NGCLQRKNWLVSGSFLHFVD came in with an amyloid nucleation score of -0.295 ± 0.72.

Substance GWCNMGGANVWKMQVTGPAE returned an amyloid nucleation score of 0.948 ± 0.58.

The substance YNVWVWCERGQC gave an amyloid nucleation score of 4.5 ± 0.1.

LLLLAIIDRYSIWK displayed an amyloid nucleation score of -0.183 ± 0.41.

VARFCNGYTHNIAMCTGIQR displayed an amyloid nucleation score of -2.44 ± 2.4.

Regarding QTTFGLMIFT, the amyloid nucleation score worked out at 0.89 ± 0.93.

For MTEQVAANAEDWSVVGNWLV, the amyloid nucleation score was found to be 0.43 ± 0.5.

Regarding LIISFVIVSRMLSVRFSTIV, the amyloid nucleation score amounted to 0.262 ± 0.61.

Turning to TFWYLLNCVSRLFNF, the amyloid nucleation score is -0.013 ± 0.57.

With LYHIGIGLKRSFNDAYV, the amyloid nucleation score is 0.038 ± 0.44.

The substance LGFVDISGSYEVLGGYPSLR came in with an amyloid nucleation score of 0.031 ± 1.2.

PVLLRSIIF returned an amyloid nucleation score of -0.346 ± 0.36.

Consider GLFKICYLVT, for which the amyloid nucleation score was 0.408 ± 0.34.

Substance VLMMV came in with an amyloid nucleation score of 1.28 ± 0.48.

As to CAVQQYRNRRGNM, the amyloid nucleation score came out at 0.152 ± 0.65.

Substance RRWGLFDIFKMPKELNMLHW came in with an amyloid nucleation score of 0.915 ± 1.1.

Substance FFWHVS registered an amyloid nucleation score of 0.091 ± 0.65.

For the substance YTWGRLGSEIKPARASMHLA, the amyloid nucleation score amounted to 1.08 ± 0.75.

In turn, GSMQQNSFREMEPRDSTGGA returned an amyloid nucleation score of -0.844 ± 0.94.

In turn, GLGYPSVFSEHCVGLRDCEL had an amyloid nucleation score of -0.189 ± 1.7.

Regarding PETIW, the amyloid nucleation score is 1.49 ± 0.5.

The substance MTPTTWLYPVILTSSLS showed an amyloid nucleation score of 0.44 ± 0.84.

In the case of LRVKSSGDLSLSGSFDCDV, the amyloid nucleation score came to 0.199 ± 0.64.

IWVSLDYMKSGNGNFTDSFC yielded an amyloid nucleation score of 2.82 ± 0.12.

YTSIGI yielded an amyloid nucleation score of -0.144 ± 0.45.

The substance PVLWT yielded an amyloid nucleation score of -0.002 ± 0.53.

Regarding FVCRLATNYH, the amyloid nucleation score result was “inactive”.

In turn, CCAISMFFELHNLHVTVMGS showed an amyloid nucleation score of 5.54 ± 0.057.

In the case of DVVFGFLGVGKLIGVDTMRR, the amyloid nucleation score was -0.725 ± 0.9.

As for HWLSAMIGVPEHGH, the amyloid nucleation score is -0.121 ± 0.33.

IICSLW showed an amyloid nucleation score of 0.614 ± 0.34.

Turning to NRDYTVFKTRVFKSIFRIR, the amyloid nucleation score came out at 0.505 ± 0.78.

Substance RGIYWVSFVLSGRIIGWMVG displayed an amyloid nucleation score of 0.275 ± 0.8.

Turning to NDDTLRSTKVIEHLFP, the amyloid nucleation score stood at 0.698 ± 1.2.

Substance PVCWSHFYFRVDVFYEWGRV showed an amyloid nucleation score of -0.274 ± 0.39.

For LMLPFVYS, the amyloid nucleation score came to 0.392 ± 0.37.

In the case of LLNRSALCWMCCTKDSWLLT, the amyloid nucleation score was 7.073 ± 0.061.

In the case of MAVSNLSDLRLMSMRHFS, the amyloid nucleation score is -0.794 ± 0.95.

Substance RSLFRECEKIVDRHSMSNFH gave an amyloid nucleation score of 0.445 ± 0.4.

LFTTWMSRGDIVSYNFFL displayed an amyloid nucleation score of 7.681 ± 0.049.

In turn, LHLWCLQSFYMCWKCPPILE showed an amyloid nucleation score of 2.57 ± 0.26.

With SASSMVFNTTSPT, the amyloid nucleation score is -0.404 ± 0.51.

In the case of MFSVFNRKRN, the amyloid nucleation score was -0.354 ± 0.26.

The values are drawn from the supplement of paper PMC12042874.
